# B1: KB_A05: EETI-II knottin fused into VL CDR2, D1A12 VH; trypsin binder (antibody)
# heavy: EVQLVESGGGLVRPGGSLRLSCAASGFTFSSYAMSWVRQAPGKGLEWVSAISGSGGSTYYADSVKGRFTISRDNTKNSLYLQMTSLRADDTAFYYCVDFGPGYGTGWFDYWGPGTLVTVSSASTKGPSVFPLAPSSKSTSGGTAALGCLVKDYFPEPVTVSWNSGALTSGVHTFPAVLQSSGLYSLSSVVTVPSSSLGTQTYICNVNHKPSNTKVDKKVEPKSC
# light: QSVLTQPPSVSEAPRQRVTITCSGSSSNIGNNAVNWYQQLPGKAPKLLIYAADKCPRILMRCKQDSDCLAGCVCGPNGFCGGGSGIPERFSGSKSGTSASLAISGLRSEDEADYYCATWDDNLNGVVFGGGTKLTVLGQPAAAPSVTLFPPSSEELQANKATLVCLISDFYPGAVTVAWKADSSPVKAGVETTTPSKQSNNKYAASSYLSLTPEQWKSHKSYSCQVTHEGSTVEKTVAPTECS
# modifications: KB_A05 Heavy chain; KB_A05 Light chain
# Columns and labels:
# trypsin [1] = experiment: KnotBody Fab TRF binding assay on biotinylated trypsin
# Procedure: In order to confirm the trypsin binding ability of KnotBodies in Fab format, purified proteins were tested for binding to trypsin using a TRF binding assay. In this assay binding of KnotBody Fabs ([…]) to biotinylated trypsin (immobilised on streptavidin coated Maxisorp™ plates) was detected using a mouse anti-CH1 antibody followed by a europium conjugated anti-mouse antibody (Table 4). 7 KnotBodies (KB_A04, KB_A01, KB_A05, KB_A07, KB_A08, KB_A10, KB_A12) were chosen for crystallisation. DNA prepared for these clones were transfected into 500 ml HEK-293F cells as described before. Expressed proteins were purified using CaptureSelect IgG-CH1 affinity matrix. Purified proteins were initially subjected to crystallisation trials using commercially available crystallisation screens (Supplier). Well-defined crystals were readily obtained for KB_A12 and KB_A05. Crystallisation conditions for these two clones were further optimised and the following condition was used to generate diffraction quality crystals: 0.1 M MES pH=6.5, 25 %w/v PEG MME 2000 and 0.1 M Tris.Cl, 50% PEG MME, 10 mM NiCl2. Complete diffraction data was collected on these crystals at 100 K under liquid nitrogen stream. Collected data was processed using PROTEUM2 software (Bruker). The crystal structure of the knottin-fused Fab antibodies was resolved using molecular replacement technique^109 using Phenix software v 1.8.1-1168^110. Resulting structure was further refined using Phenix.Refine^111. The templates for molecular replacement were downloaded from PDB website (www.rcsb.org/pdb, PDB codes: 3G04 for light chain and 3QOS for heavy chain). KnotBody KB_A12 and KB_A05 sequences are given below. An additional AlaSer sequence is introduced at the N terminus of the light chain from the Nhe1 site used in cloning.
# In order to compare the performance of the KnotBodies with short and long linkers, purified Fabs were tested for binding to trypsin by ELISA. In this assay binding of KnotBody Fabs (at 0.5 µg/ml) to biotinylated trypsin (5 µg/ml immobilised on streptavidin coated Maxisorp™ plates) was detected using a mouse anti-CH1 antibody (Hybridoma Reagent Laboratories) followed by a europium conjugated anti-mouse antibody (Perkin Elmer, Cat. No. AD0124). The trypsin binding capability of KB_A07 and KB_A12 KnotBodies were greatly diminished when the short selected linkers were replaced with long and flexible linkers (FIG. 22).
# trypsin [2] = experiment: Phage TRF binding assay on immobilised biotinylated trypsin (monoclonal phage ELISA)
# Procedure: Phage display technology facilitates isolation of binders to any given target from large combinatorial repertoires based on proteins and peptides that can be presented on the surface of filamentous phage^105. In order to isolate functional knottin-antibody fusions from the KnotBody libraries multiple rounds of phage display selections on trypsin (cognate antigen for the EETI-II donor) were carried out. Phage particles were prepared by rescuing KnotBody libraries using trypsin cleavable helper phage ^102,106Two rounds of phage display selections were performed on 10 µg/ml biotinylated trypsin immobilised on Streptavidin (for Round-1) or Neutravidin (for round-2) coated Maxisorp™ immunotubes (Thermo Scientific, Cat No. 444202). In both rounds of selection, phage libraries were pre-incubated with streptavidin coated paramagnetic beads (Thermo Fisher Scientific, Cat. No. 11205D). These beads were removed prior to the addition the phage to the antigen tubes to limit the streptavidin binders entering the selection. Polyclonal phage preparations from round-2 selection outputs were analysed for trypsin binding using a time resolved fluorescence (TRF) binding assay. In this assay, polyclonal phage binding to biotinylated trypsin immobilised on neutravidin (Thermo Fisher Scientific, Cat. No 31000) coated Maxisorp™ plates (Thermo Scientific, Cat. No. 437111) was detected using a mouse anti-M13 antibody (GE Healthcare, Cat. No. 27-9420-01) followed by europium conjugated anti-mouse antibody (Perkin Elmer, Cat. No. AD0124).
# In order to identify monoclonal KnotBodies with desired binding characteristics, 94 individual clones derived from 2 rounds of selection using EETI-II CDR1 or CDR2 libraries were picked into 96 well culture plates and phage were prepared from each clone. Methods for screening by monoclonal phage ELISA are known in the art^107. […] Clones with >3x binding signal above background were picked as positive clones and sequenced to identify unique clones. 14 and 42 unique binders were identified from EETI-II CDR1 and EETI-II CDR2 libraries respectively (Table 1). 18 binders from the EETI-II CDR2 library and 3 binders from the EETI-II-CDR1 library were chosen for further characterisation based on their VL and linker sequence diversity. These binders were assigned new clone identification numbers (Table 2).
# The trypsin binding capability of EETI-II is attributed to proline (Pro3) and arginine (Arg4) residues present in its loop1 (GCPRILMRC; SEQ ID NO: 68). […] Monoclonal phage was prepared from the 21 selected clones and their mutant equivalents. […] Replacement of the trypsin-binding residues of EETI-II abolished the ability of all KnotBody clones to bind to trypsin (Table 3). In order to confirm that the loss of trypsin binding was not due to reduced expression or display of pIII fusion phage was prepared from 11 (randomly chosen) KnotBodies and their GlyAla variants were analysed on a western blot using an antibody which recognises the product of gene 3 (pIII) using an anti-pIII antibody (MoBiTec GmbH) (FIG. 6).
# Bovine antibodies have been described with natural ultra-long VH CDR3s containing a solvent exposed double stranded antiparallel sheet approximately 20 A° in length (referred to as the stalk) presenting a folded domain stabilised by 3 disulfide bonds (referred to as the Knob)^10. Zhang and colleagues have shown that the Knob domains of these cow ultra-long VH CDR3 antibodies (ULVC-Ab) can be replaced with other folded proteins such as erythropoietin^13. In this example, we assess the ability of a cow ULVC-Ab to present functional knottin fusions on phage in comparison with a KnotBody. In order to create a Knottin-cow UCLA fusion, the sequence between the first and the last cysteines of the knob region of the Cow ULVC-Ab BLV1H12 was replaced with the sequence of the trypsin binding knottin; EETI-II (EETI-II cow ULVC-Ab). A gene fragment encoding this construct was synthesised (Integrated DNA technologies, Table 21). […]
molecule,measurement,setting,value
B1,TRF signal for 0.6 ug/mL Fab,trypsin [1]; Fab 0.6 ug/mL,46706
same,TRF signal for 2.4 ug/mL Fab,trypsin [1]; Fab 2.4 ug/mL,65386
same,TRF signal for 10 ug/mL Fab,trypsin [1]; Fab 10 ug/mL,217918
same,% reduction in binding signal,"trypsin [2]; GlyAla mutant (Pro3, Arg4 of EETI-II substituted) versus the clone, monoclonal phage",100%
same,Tryspin binding signal (FU),"trypsin [2]; monoclonal phage supernatant, biotinylated trypsin on neutravidin plates",121458 FU

# From patent US20230331827A1, “POTASSIUM CHANNEL INHIBITORS” (priority 2017, published 2023)
